Results as given in patent US20060160174A1, “Modified l49-sfv exhibiting increased stability and methods of use thereof” (priority 2002, published 2006).
Numbering of substitutions follows the chain as printed. Names may count otherwise.

B1: FP930: L49-sFv-bL with mutation K H39 Q (protein)
scFv: MEVQLQESGPSLVKPSQTLSLTCSVTGDSITSGYWNWIRQFPGNKLEYMGYISDSGITYYNPSLKSRISITRDTSKNQYYLQLNFVTAEDTATYNCARRTLATYYAMDYWGQGTSVTVSSGSTSGSGKPGSGEGSTKGDFVMTQTPLSLPVSLGDQASISCRASQSLVHSNGNTYLHWYLQKPGQSPKLLIYRVSNRFSGVPDRFSGSGSGTDFTLKISRVEAEDLGVYFCSQSTHVPPTFGGGTKLEIKRTPVSEKQLAEVVANTITPLMKAQSVPGMAVAVIYQGKPHYYTFGKADIAANKPVTPQTLFELGSISKTFTGVLGGDAIARGEISLDDAVTRYWPQLTGKQWQGIRMLDLATYTAGGLPLQVPDEVTDNASLLRFYQNWQPQWKPGTTRLYANASIGLFGALAVKPSGMPYEQAMTTRVLKPLKLDHTWINVPKAEEAHYAWGYRDGKAVRVSPGMLDAQAYGVKTNVQDMANWVMANMAPENVADASLKQGIALAQSRYWRIGSMYQGLGWEMLNWPVEANTVVETSFGNVALAPLPVAEVNPPAPPVKASWVHKTGSTGGFGSYVAFIPEKQIGIVMLANTSYPNPARVEAAYHILEALQ
B2: FP945: L49-sFv-bL with mutation F H82B S (protein)
scFv: B1 scFv with Q40K, F85S
B3: FP950: L49-sFv-bL with mutation N H91 Y (protein)
scFv: B1 scFv with Q40K, N95Y
B4: FP999: triple mutant K H39 Q, F H82B S, N H91 Y in reverse bL-L49-sFv orientation (β-lactamase at amino terminus) (protein)
chain: TPVSEKQLAEVVANTITPLMKAQSVPGMAVAVIYQGKPHYYTFGKADIAANKPVTPQTLFELGSISKTFTGVLGGDAIARGEISLDDAVTRYWPQLTGKQWQGIRMLDLATYTAGGLPLQVPDEVTDNASLLRFYQNWQPQWKPGTTRLYANASIGLFGALAVKPSGMPYEQAMTTRVLKPLKLDHTWINVPKAEEAHYAWGYRDGKAVRVSPGMLDAQAYGVKTNVQDMANWVMANMAPENVADASLKQGIALAQSRYWRIGSMYQGLGWEMLNWPVEANTVVETSFGNVALAPLPVAEVNPPAPPVKASWVHKTGSTGGFGSYVAFIPEKQIGIVMLANTSYPNPARVEAAYHILEALQMHGTKLMEVQLQESGPSLVKPSQTLSLTCSVTGDSITSGYWNWIRQFPGNKLEYMGYISDSGITYYNPSLKSRISITRDTSKNQYYLQLNSVTAEDTATYYCARRTLATYYAMDYWGQGTSVTVSSGSTSGSGKPGSGEGSTKGDFVMTQTPLSLPVSLGDQASISCRASQSLVHSNGNTYLHWYLQKPGQSPKLLIYRVSNRFSGVPDRFSGSGSGTDFTLKISRVEAEDLGVYFCSQSTHVPPTFGGGTKLEIKR
B5: FP95: parental (wt) L49-sFv-bL fusion protein refolded from E. coli inclusion bodies (protein)
scFv: B1 scFv with Q40K
B6: FP960: L49-sFv-bL double mutant F H82B S, N H91 Y (protein)
scFv: B1 scFv with Q40K, F85S, N95Y
B7: FP965: L49-sFv-bL double mutant K H39 Q, N H91 Y (protein)
scFv: B1 scFv with N95Y
B8: FP990: L49-sFv-bL triple mutant K H39 Q, F H82B S, N H91 Y (protein)
scFv: B1 scFv with F85S, N95Y

molecular target: T1, soluble p97 (amino acids 20-710 of human p97 precursor) (Homo sapiens, UniProt P08582); assay: solid-phase p97 binding assay of crude refolded fusion proteins (refolding efficiency); settings: crude refolds normalized on β-lactamase activity
T1 construct: Soluble p97 (amino acids 20-710 of human p97 precursor); 6xHis; made in house
T1 sequence (P08582 20-710): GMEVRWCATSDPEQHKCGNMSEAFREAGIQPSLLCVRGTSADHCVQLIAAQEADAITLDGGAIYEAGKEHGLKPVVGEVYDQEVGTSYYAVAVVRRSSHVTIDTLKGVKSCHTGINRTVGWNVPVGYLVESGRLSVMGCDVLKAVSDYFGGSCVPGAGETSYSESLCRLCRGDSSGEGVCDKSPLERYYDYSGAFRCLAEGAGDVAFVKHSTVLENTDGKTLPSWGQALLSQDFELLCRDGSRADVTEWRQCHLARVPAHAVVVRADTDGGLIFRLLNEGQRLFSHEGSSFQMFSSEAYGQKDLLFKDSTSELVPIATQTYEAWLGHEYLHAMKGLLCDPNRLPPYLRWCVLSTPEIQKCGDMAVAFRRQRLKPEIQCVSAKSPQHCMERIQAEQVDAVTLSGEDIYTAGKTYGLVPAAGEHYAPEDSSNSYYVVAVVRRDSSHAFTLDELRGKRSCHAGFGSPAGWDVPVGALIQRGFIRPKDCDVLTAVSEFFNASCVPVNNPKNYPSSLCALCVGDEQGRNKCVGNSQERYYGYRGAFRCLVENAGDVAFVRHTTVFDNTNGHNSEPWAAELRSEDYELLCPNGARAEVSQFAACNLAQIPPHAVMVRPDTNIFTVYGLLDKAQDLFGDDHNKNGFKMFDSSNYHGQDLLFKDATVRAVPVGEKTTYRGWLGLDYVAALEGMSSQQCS
Description: For small scale expression BL21([DE3) (Novagen) were transformed with parental and mutant constructs and single colonies was used to inoculate 100 ml Terrific Broth II (TB) (QBIOGENE). Cells were induced at an OD of 1.0 with 1 mM IPTG (Sigma). Cells were harvested following overnight incubation and inclusion bodies were purified from the cell extracts using B-Per (Novagen) according to the manufacturers instructions. Inclusion body pellets were resuspended in 8 M urea, 2 mM DTT, 50 mM Tris.Cl pH 8.0 at a concentration of 50 mg/ml. Inclusion bodies were refolded overnight in a 50-fold dilution of 2 M urea, 0.3 M L-arginine, 50 mM Tris.Cl pH 8.0, 1 mM reduced glutathione, 0.1 mM oxidized glutathione. Protein was then dialyzed into PBS and fusion protein concentration was determined by measuring β-lactamase activity using colorimetric substrate nitrocefin.
Soluble p97 (amino acids 20-710 of human p97 precursor) was cloned into pSecTag2 (Invitrogen), incorporating an Ig Kappa leader sequence and a 6× his tag, and transfected into CHO cells. Stable transformants were selected and secreted protein was purified from conditioned medium on a metal chelate affinity column. Assays were performed by coating polystyrene 96-well plates with 2 μg/ml soluble p97 in PBS overnight. The plates were blocked by adding 1% bovine serum albumin in PBS for 1 hour at room temperature. Plates were emptied and fresh blocking reagent containing serial dilutions of L49-sFv-bL samples was added. Following 1 hour at room temperature the plates were washed and developed with 0.1 ml of colorimetric β-lactamase substrate nitrocefin solution at 0.1 mM in PBS containing 1% DMSO. Absorbance measurements were read in an ELISA plate reader using a 490 nm filter with 610 m as the reference wavelength.
The unusual residues in the L49 scFv framework were mutated to the most frequently occurring residue for that position in the Kabat database (Chowdhury et al., 1998, J. Mol. Biol. 281, 917-928). […] Binding to p97 was then determined using a solid-phase binding assay as described in Section 6.1.3, supra.

| Molecule | antigen binding of refolded mutant compared to parental L49-sFv-bL (FP95) |
| --- | --- |
| B1 | significant increases in antigen binding |
| B2 | significant increases in antigen binding |
| B3 | significant increases in antigen binding |

molecular target: T2, Recombinant p97 (Homo sapiens, UniProt P08582); assay: binding affinity by surface plasmon resonance (Biacore 2000); settings: 25° C., immobilized p97, 1:1 model, error in last digit in parentheses
T2 construct: Soluble p97 (amino acids 20-710 of human p97 precursor); 6xHis; made in house
T2 sequence (P08582 20-710): T1 sequence (P08582 20-710)
Description: The buffer used in the study was PBS, 0.005% P20, 0.2 mg/mi BSA. Antigen was immobilized on one flow cell surface of a CM5 sensor chip and the others were left blank to serve as reference surfaces. For each scFv, triplicates of 0, 0.5, 2.8, 8.3, 25, 75 and 225 nM were injected across the immobilized antigen. The association and dissociation phases were monitored for 1 and 20 minutes, respectively. The antigen surface was regenerated with four 18-second pulses of 2.5 mM NaOH between injections.
The binding affinities of double mutants FP960 and FP965 and triple mutants FP990 and FP999 were compared to the parental molecule by surface plasmon resonance. Recombinant p97 was immobilized on a BIACore CM5 sensor chip and varying concentrations of each scFv fusion protein were injected across the chip in triplicate.

| Molecule | ka | kd |
| --- | --- | --- |
| B4 | 3.373(3) × 10^5 M^−1 s^−1 | 5.755(7) × 10^−4 s^−1 |
| B5 | 3.038(2) × 10^5 M^−1 s^−1 | 7.004(5) × 10^−4 s^−1 |
| B6 | 3.640(4) × 10^5 M^−1 s^−1 | 6.383(7) × 10^−4 s^−1 |
| B7 | 4.000(6) × 10^5 M^−1 s^−1 | 7.65(1) × 10^−4 s^−1 |
| B8 | 4.476(1) × 10^5 M^−1 s^−1 | 7.819(3) × 10^−4 s^−1 |

molecular target: T3, purified p97 antigen (Homo sapiens, UniProt P08582); assay: size exclusion chromatography (SEC) binding assay, 2:1 p97 antigen to L49-sFv-bL; settings: purified protein after ion exchange
T3 construct: Soluble p97 (amino acids 20-710 of human p97 precursor); 6xHis; made in house
T3 sequence (P08582 20-710): T1 sequence (P08582 20-710)
Description: Double mutants FP960 and FP965 and triple mutant FP990 all show improved refolding activity in crude lysates compared to the parental molecule, and therefore, all three mutant molecules were selected for further analysis. Proteins were expressed at the 1L scale in shake flasks as described in Materials and Methods, supra. Inclusion bodies (IBs) were obtained at a typical yield of 25% (±10%) wet IB mass/wet cell mass. Renatured L49-sFv-bL was purified by aminophenylboronate chromatography, dialyzed into 10 mM Na2PO4 and loaded onto Macro-prep HS resin. Fusion proteins were eluted in a stepwise fashion employing 250 mM NaCl. […] Mutants FP965 and FP990 were greater than 95% monomeric as shown by SEC-HPLC. However, FP960 contained only 55% monomer after cation exchange purification, possibly indicating a key role for the lysine residue at position H39 in refolding. The parental molecule, FP95, was present as 2 bands following aminophenylboronate chromatography. After ion-exchange chromatography only the upper of these 2 bands was eluted. A size exclusion chromatography (SEC) binding assay was developed in which a 2:1 ratio of purified p97 antigen to purified L49-sFv-bL was mixed and analyzed by HPLC-SEC (data not shown).

| Molecule | antigen binding in SEC assay |
| --- | --- |
| B4 | bound completely to antigen |
| B5 | bound antigen completely |

tested on: H3677 human melanoma xenografts; assay: not given; settings: fusion protein 1 mg/kg i.v. followed 24 h later by C-Mel 100 mg/kg, q7dx3

| Molecule | tumor response |
| --- | --- |
| B4 | significant tumor regression |
| B8 | significant tumor regression |
